# Data as given in patent publication US9738880B2, “Lysosomal protein targeting sequence and therapeutic applications of same” (Children's Hospital Medical Center, priority 2013, dated 2017).
# “Also recorded” adds a separate entry of the source.
# Tests used:
# GCase binding to ldLIMP2 = molecular target: T1, GCase binding to ldLIMP2 (Homo sapiens, UniProt Q14108); experiment: Competitive immunoprecipitation of GCase with ldLIMP2 at increasing molar ratios of peptide
# T1 construct: Purified luminal domain LIMP-2 (1d-LIMP2) was custom made (Sino Biological Inc., PRC.); purchased Sino Biological Inc
# T1 sequence (Q14108 28-433 limits assumed): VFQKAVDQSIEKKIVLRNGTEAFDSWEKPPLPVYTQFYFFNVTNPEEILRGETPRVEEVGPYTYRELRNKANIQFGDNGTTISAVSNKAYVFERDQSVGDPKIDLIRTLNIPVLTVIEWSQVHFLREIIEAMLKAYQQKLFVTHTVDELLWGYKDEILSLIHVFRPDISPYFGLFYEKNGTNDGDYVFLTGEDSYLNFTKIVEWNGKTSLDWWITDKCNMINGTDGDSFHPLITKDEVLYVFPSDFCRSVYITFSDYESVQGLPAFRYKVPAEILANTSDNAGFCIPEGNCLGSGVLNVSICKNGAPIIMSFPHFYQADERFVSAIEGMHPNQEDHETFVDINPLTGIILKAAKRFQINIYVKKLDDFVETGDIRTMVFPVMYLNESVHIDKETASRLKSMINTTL
# Experimental: FIG. 8A-FIG. 8C: Immunoprecipitation of GCase in the presence of ldLIMP2 and increasing molar ratios of the WT (DSPIIV (SEQ ID NO 15)) peptide. FIG. 8A depicts immunoprecipitation of GCase and LIMP-2. Purified WT GCase was preincubated with purified ldLIMP2 in a molar ratio of 1:1. Then, unlabeled DSPIIV (SEQ ID NO 15) was added in varying molar excesses (0 to 5×, top of figure) over GCase, incubated, and then immunoprecipitated with Protein G-coupled anti-LIMP-2 antibody beads. The beads were then eluted and the eluants were analyzed for GCase and ldLIMP2 on Western blots using the specified antibodies. […] In the bottom panel, ldLIMP2 recovery was the same at all peptide ratios. FIG. 8B depicts immunoprecipitation of GCase and LIMP-2. Purified ldLIMP2 was preincubated with unlabeled WT peptide at various molar ratios. Then, purified WT GCase was added in a 1:1 molar ratio with ldLIMP2, incubated, and then immunoprecipitated and processed as in FIG. 8A. […] FIG. 8C depicts immunoprecipitation of GCase and LIMP-2. Purified WT GCase was preincubated with purified ldLIMP2 in a molar ratio of 1:1. Then peptide DDQRLLL, a potential candidate for the GCase ligand for ldLIMP2, was added in varying molar excesses over WT GCase, incubated, and then immunoprecipitated and processed as in FIG. 8A. […] DDQRLLL (SEQ ID NO 14) is a dileucine peptide outside of the localized targeting region of DSPIIVDITKD (SEQ ID NO 3) (see FIG. 3).
# FIG. 14A-FIG. 14B: Immunoprecipitation of GCase in the presence of ldLIMP2 and increasing molar ratios of the WT (DDQRLLL (SEQ ID NO 14)) peptide. In FIG. 14A or FIG. 14B, ldLIMP2 and DDQRLLL (SEQ ID NO 14) were incubated before (as shown in FIG. 14A) or together with (as shown in FIG. 14B) GCase and analyzed as in FIG. 8A-FIG. 8C.
# Immunoprecipitation and Competition Studies: To further evaluate the interaction of ldLIMP-2, WT GCase, and the DSPIIV (SEQ ID NO 15) peptide, competitive immunoprecipitation experiments were conducted using increasing concentrations of the WT peptide in competition with GCase for binding (FIG. 8A). […]
# ldLIMP2 = molecular target: T2, ldLIMP2 (Homo sapiens, UniProt Q14108); experiment: Fluorescence polarization binding and competition of DDQRLLL GCase peptides to ldLIMP2; conditions: ldLIMP2 fixed at 1000 nM; FIG. 13
# T2 construct: Purified luminal domain LIMP-2 (1d-LIMP2) was custom made (Sino Biological Inc., PRC.); purchased Sino Biological Inc
# T2 sequence (Q14108 28-433 limits assumed): T1 sequence (Q14108 28-433 limits assumed)
# Experimental: FIG. 13A-FIG. 13B: Competition and binding of fluorescent labeled or unlabeled DDQRLLL (SEQ ID NO 14) GCase peptides to ldLIMP2. FIG. 13A depicts the δmP of the WT (DDQRLLL (SEQ ID NO 14)) or variously alanine substituted labeled peptides were plotted against the corresponding unlabeled peptide competitors. Note that the fixed ldLIMP2 concentration was 1000 nM or 20 times that used in similar studies (FIG. 7A-FIG. 7C). For all peptides the δmP were near or at background levels. FIG. 13B depicts the binding δmP for the various peptides as in FIG. 13A. The signals were near background levels for all peptides using concentrations 5 to 10 times that for DSPIIV (SEQ ID NO 15) and with a 20 times greater LIMP2 fixed concentration.
# Fluorescence Polarization: The DSPIIV (SEQ ID NO 15) and its mutants, and DDQRLLL (SEQ ID NO 14) peptides (FITC labeled or non-labeled) were synthesized (American Peptide Co., Vista, Calif.). Lyophilized peptides were solubilized in acetonitrile and then were diluted at least 10,000-fold into the reactions for fluorescence polarization assessments. The reactions were done at least in duplicate at various peptide and LIMP-2 concentrations (SpectraMax M5, Molecular Device). Fluorescence polarization data were collected and analyzed with SoftMax Pro 5.0 software. Reaction mixtures contained 100 mM phosphate, pH 6.8 and 1 mM DTT.
substance,measurement,setting,value
DDQRLLL (GCase di-leucine sequence),"competition of bound GCase off ldLIMP2, in words","GCase binding to ldLIMP2; GCase preincubated with ldLIMP2 1:1, then peptide 0 to 5× molar excess",did not compete GCase off of ldLIMP2
same,"competition with GCase for ldLIMP2 binding, in words","GCase binding to ldLIMP2; ldLIMP2, peptide and GCase incubated together, up to 5× molar excess",did not complete with GCase; also recorded: does not compete with GCase
same,"prevention of GCase binding to ldLIMP2, in words","GCase binding to ldLIMP2; peptide preincubated with ldLIMP2 before GCase was added, up to 5× molar",did not complete with GCase; also recorded: does not compete with GCase
same,"binding to ldLIMP2 (δmP), in words",ldLIMP2,lack of binding; also recorded: little or no binding
